Source: patent publication US20170130226, “APTAMERS AGAINST EGFR AND THERAPEUTIC USES THEREOF” (ALTERMUNE LIMITED, published 2017)

The binders below were run against EGFR (UniProt P00533 P00533:25-645) (assay: SPR; PBS, 5 mM MgCl2, 20 C). Conditions: tags: R&D Systems; amine-coupled to sensor chip; label: 5' biotin.
Experimental: Aptamer binding to EGFR recombinant protein was assessed by surface plasmon resonance (SPR). SPR experiments were performed on a 404pi system (BiOptix, Boulder, Colo.), at a constant temperature of 20° C., 20 μL min⁻¹ flow rate, using running buffer (degassed PBS, 5 mM MgCl₂, 0.05% Tween) for all coupling and capture steps. 0.1 M N-hydroxysuccinimide (NHS) in MOPS, 0.4 M 1-ethyl-3-(3-dimethylaminopropyl) carbodiimide hydrochloride (EDC), 1 M ethanolamine hydrochloride (pH 8.5) and 10 mM sodium acetate pH 4.5, were from Sigma (St. Louis, Mo.). EGFR was obtained from R&D Systems (Minneapolis, Minn.). Three 96 well plates of oligonucleotides were synthesized by solid phase phosphoramidite chemistry by Boston Open Labs (Cambridge, Mass.) with a 5′ biotin.
The surface in all four channels of a CDM150 sensor chip (BiOptix) was activated by injecting 140 μL of a 1:1 mixture (v/v) of EDC and NHS. Then 350 μL of 285 nM EGFR in 10 mM sodium acetate pH 4.5 was injected in all 4 channels and covalently bound to a density of ˜8000 Response Units (RU) over 1050 sec. Finally, the surface was blocked by an injection of 200 μL 1 M ethanolamine hydrochloride.

Binding result, binds:
GGACGGAUUUAAUCGCCGUAGAAAAGCAUGUCAAAGCCGGAACCGUCC (ssRNA, 2'-F all C and U; 2'-OMe A7) [ALT102064.01]
GGACGGAUUUAAUCGCCGUAGAAAAGCAUGUCAAAGCCGGAACCGUCC (ssRNA, 2'-F all C and U except 2'-OMe U8) [ALT102065.01]
GGACGGAUUUAAUCGCCGUAGAAAAGCAUGUCAAAGCCGGAACCGUCC (ssRNA, 2'-F all C and U except 2'-OMe U9) [ALT102066.01]
GGACGGAUUUAAUCGCCGUAGAAAAGCAUGUCAAAGCCGGAACCGUCC (ssRNA, 2'-F all C and U; 2'-OMe G15) [ALT102072.01]
GGACGGAUUUAAUCGCCGUAGAAAAGCAUGUCAAAGCCGGAACCGUCC (ssRNA, 2'-F all C and U except 2'-OMe C16) [ALT102073.01]
GGACGGAUUUAAUCGCCGUAGAAAAGCAUGUCAAAGCCGGAACCGUCC (ssRNA, 2'-F all C and U; 2'-OMe G18) [ALT102075.01]
GGACGGAUUUAAUCGCCGUAGAAAAGCAUGUCAAAGCCGGAACCGUCC (ssRNA, 2'-F all C and U except 2'-OMe U19) [ALT102076.01]
GGACGGAUUUAAUCGCCGUAGAAAAGCAUGUCAAAGCCGGAACCGUCC (ssRNA, 2'-F all C and U; 2'-OMe A20) [ALT102077.01]
GGACGGAUUUAAUCGCCGUAGAAAAGCAUGUCAAAGCCGGAACCGUCC (ssRNA, 2'-F all C and U; 2'-OMe G21) [ALT102078.01]
GGACGGAUUUAAUCGCCGUAGAAAAGCAUGUCAAAGCCGGAACCGUCC (ssRNA, 2'-F all C and U; 2'-OMe A23) [ALT102080.01]
GGACGGAUUUAAUCGCCGUAGAAAAGCAUGUCAAAGCCGGAACCGUCC (ssRNA, 2'-F all C and U; 2'-OMe A24) [ALT102081.01]
GGACGGAUUUAAUCGCCGUAGAAAAGCAUGUCAAAGCCGGAACCGUCC (ssRNA, 2'-F all C and U; 2'-OMe G26) [ALT102083.01]
GGACGGAUUUAAUCGCCGUAGAAAAGCAUGUCAAAGCCGGAACCGUCC (ssRNA, 2'-F all C and U except 2'-OMe C27) [ALT102084.01]
GGACGGAUUUAAUCGCCGUAGAAAAGCAUGUCAAAGCCGGAACCGUCC (ssRNA, 2'-F all C and U; 2'-OMe A28) [ALT102085.01]
GGACGGAUUUAAUCGCCGUAGAAAAGCAUGUCAAAGCCGGAACCGUCC (ssRNA, 2'-F all C and U; 2'-OMe G30) [ALT102087.01]
GGACGGAUUUAAUCGCCGUAGAAAAGCAUGUCAAAGCCGGAACCGUCC (ssRNA, 2'-F all C and U; 2'-OMe A33) [ALT102090.01]
GGACGGAUUUAAUCGCCGUAGAAAAGCAUGUCAAAGCCGGAACCGUCC (ssRNA, 2'-F all C and U; 2'-OMe G36) [ALT102093.01]
GGACGGAUUUAAUCGCCGUAGAAAAGCAUGUCAAAGCCGGAACCGUCC (ssRNA, 2'-F all C and U except 2'-OMe C37) [ALT102094.01]
GGACGGAUUUAAUCGCCGUAGAAAAGCAUGUCAAAGCCGGAACCGUCC (ssRNA, 2'-F all C and U except 2'-OMe C38) [ALT102095.01]
GGACGGAUUUAAUCGCCGUAGAAAAGCAUGUCAAAGCCGGAACCGUCC (ssRNA, 2'-F all C and U; 2'-OMe G39) [ALT102096.01]
GGACGGAUUUAAUCGCCGUAGAAAAGCAUGUCAAAGCCGGAACCGUCC (ssRNA, 2'-F all C and U; 2'-OMe G40) [ALT102097.01]
GGACGGAUUUAAUCGCCGUAGAAAAGCAUGUCAAAGCCGGAACCGUCC (ssRNA, 2'-F all C and U; 2'-OMe A41) [ALT102098.01]
GGACGGAUUUAAUCGCCGUAGAAAAGCAUGUCAAAGCCGGAACCGUCC (ssRNA, 2'-F all C and U; 2'-OMe G45) [ALT102102.01]
GGACGGAUUUAAUCGCCGUAGAAAAGCAUGUCAAAGCCGGAACCGUCC (ssRNA, 2'-F all C and U; 2'-OMe G1) [ALT102058.01]
GGACGGAUUUAAUCGCCGUAGAAAAGCAUGUCAAAGCCGGAACCGUCC (ssRNA, 2'-F all C and U except 2'-OMe U46) [ALT102103.01]
GGACGGAUUUAAUCGCCGUAGAAAAGCAUGUCAAAGCCGGAACCGUCC (ssRNA, 2'-F all C and U except 2'-OMe C47) [ALT102104.01]
GGACGGAUUUAAUCGCCGUAGAAAAGCAUGUCAAAGCCGGAACCGUCC (ssRNA, 2'-F all C and U except 2'-OMe C48) [ALT102105.01]
GGACGGAUUUAAUCGCCGUAGAAAAGCAUGUCAAAGCCGGAACCGUCC (ssRNA, 2'-F all C and U and G2) [ALT102107.01]
GGACGGAUUUAAUCGCCGUAGAAAAGCAUGUCAAAGCCGGAACCGUCC (ssRNA, 2'-F all C and U and A3) [ALT102108.01]
GGACGGAUUUAAUCGCCGUAGAAAAGCAUGUCAAAGCCGGAACCGUCC (ssRNA, 2'-F all C and U and G5) [ALT102109.01]
GGACGGAUUUAAUCGCCGUAGAAAAGCAUGUCAAAGCCGGAACCGUCC (ssRNA, 2'-F all C and U and G6) [ALT102110.01]
GGACGGAUUUAAUCGCCGUAGAAAAGCAUGUCAAAGCCGGAACCGUCC (ssRNA, 2'-F all C and U and A7) [ALT102111.01]
GGACGGAUUUAAUCGCCGUAGAAAAGCAUGUCAAAGCCGGAACCGUCC (ssRNA, 2'-F all C and U and A11) [ALT102112.01]
GGACGGAUUUAAUCGCCGUAGAAAAGCAUGUCAAAGCCGGAACCGUCC (ssRNA, 2'-F all C and U; 2'-OMe G2) [ALT102059.01]
GGACGGAUUUAAUCGCCGUAGAAAAGCAUGUCAAAGCCGGAACCGUCC (ssRNA, 2'-F all C and U and G15) [ALT102114.01]
GGACGGAUUUAAUCGCCGUAGAAAAGCAUGUCAAAGCCGGAACCGUCC (ssRNA, 2'-F all C and U and A20) [ALT102116.01]
GGACGGAUUUAAUCGCCGUAGAAAAGCAUGUCAAAGCCGGAACCGUCC (ssRNA, 2'-F all C and U and G21) [ALT102117.01]
GGACGGAUUUAAUCGCCGUAGAAAAGCAUGUCAAAGCCGGAACCGUCC (ssRNA, 2'-F all C and U and A22) [ALT102118.01]
GGACGGAUUUAAUCGCCGUAGAAAAGCAUGUCAAAGCCGGAACCGUCC (ssRNA, 2'-F all C and U and A23) [ALT102119.01]
GGACGGAUUUAAUCGCCGUAGAAAAGCAUGUCAAAGCCGGAACCGUCC (ssRNA, 2'-F all C and U and A24) [ALT102120.01]
GGACGGAUUUAAUCGCCGUAGAAAAGCAUGUCAAAGCCGGAACCGUCC (ssRNA, 2'-F all C and U and A25) [ALT102121.01]
GGACGGAUUUAAUCGCCGUAGAAAAGCAUGUCAAAGCCGGAACCGUCC (ssRNA, 2'-F all C and U and G26) [ALT102122.01]
GGACGGAUUUAAUCGCCGUAGAAAAGCAUGUCAAAGCCGGAACCGUCC (ssRNA, 2'-F all C and U; 2'-OMe A3) [ALT102060.01]
GGACGGAUUUAAUCGCCGUAGAAAAGCAUGUCAAAGCCGGAACCGUCC (ssRNA, 2'-F all C and U and A28) [ALT102123.01]
GGACGGAUUUAAUCGCCGUAGAAAAGCAUGUCAAAGCCGGAACCGUCC (ssRNA, 2'-F all C and U and A33) [ALT102125.01]
GGACGGAUUUAAUCGCCGUAGAAAAGCAUGUCAAAGCCGGAACCGUCC (ssRNA, 2'-F all C and U except 2'-OMe C4) [ALT102061.01]
GGACGGAUUUAAUCGCCGUAGAAAAGCAUGUCAAAGCCGGAACCGUCC (ssRNA, 2'-F all C and U; 2'-OMe G5) [ALT102062.01]
GGACGGAUUUAAUCGCCGUAGAAAAGCAUGUCAAAGCCGGAACCGUCC (ssRNA, 2'-F all C and U; 2'-OMe G6) [ALT102063.01]
